Data as given in patent publication US20130095108.

How the values were obtained:
[1] = target: T1, Corn Trypsin Inhibitor (CTI, Calbiochem), P01088
T1 chain: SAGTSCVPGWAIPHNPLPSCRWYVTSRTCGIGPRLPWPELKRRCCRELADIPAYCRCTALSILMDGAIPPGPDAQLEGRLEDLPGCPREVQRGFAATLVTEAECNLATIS

[2] = target: Peptide TCK from uPAR's domain 2 (position 196-214)
[3] = target: Peptide LRG20 (position 166-185) from uPAR's domain 2

B1: FXII in bronchoalveolar lavage fluid (BALF) from IPF patients (protein)
chain: IPPWEAPKEHKYKAEEHTVVLTVTGEPCHFPFQYHRQLYHKCTHKGRPGPQPWCATTPNFDQDQRWGYCLEPKKVKDHCSKHSPCQKGGTCVNMPSGPHCLCPQHLTGNHCQKEKCFEPQLLRFFHKNEIWYRTEQAAVARCQCKGPDAHCQRLASQACRTNPCLHGGRCLEVEGHRLCHCPVGYTGAFCDVDTKASCYDGRGLSYRGLARTTLSGAPCQPWASEATYRNVTAEQARNWGLGGHAFCRNPDNDIRPWCFVLNRDRLSWEYCDLAQCQTPTQAAPPTPVSPRLHVPLMPAQPAPPKPQPTTRTPPQSQTPGALPAKREQPPSLTRNGPLSCGQRLRKSLSSMTRVVGGLVALRGAHPYIAALYWGHSFCAGSLIAPCWVLTAAHCLQDRPAPEDLTVVLGQERRNHSCEPCQTLAVRSYRLHEAFSPVSYQHDLALLRLQEDADGSCALLSPYVQPVCLPSGAARPSETTLCQVAGWGHQFEGAEEYASFLQEAQVPFLSLERCSAPDVHGSSILPGMLCAGFLEGGTDACQGDSGGPLVCEDQAAERRLTLQGIISWGSGCGDRNKPGVYTDVAYYLAWIREHTVS
[1]
  FXII activity assay using chromogenic substrate: The specificity of performed assay was proved by blockade of FXII activity by its inhibitor, Corn Trypsin Inhibitor (CTI)

B2: FXIIa (activated factor XII; American Diagnostica, Stamford, Conn.) (protein)
chain: IPPWEAPKEHKYKAEEHTVVLTVTGEPCHFPFQYHRQLYHKCTHKGRPGPQPWCATTPNFDQDQRWGYCLEPKKVKDHCSKHSPCQKGGTCVNMPSGPHCLCPQHLTGNHCQKEKCFEPQLLRFFHKNEIWYRTEQAAVARCQCKGPDAHCQRLASQACRTNPCLHGGRCLEVEGHRLCHCPVGYTGAFCDVDTKASCYDGRGLSYRGLARTTLSGAPCQPWASEATYRNVTAEQARNWGLGGHAFCRNPDNDIRPWCFVLNRDRLSWEYCDLAQCQTPTQAAPPTPVSPRLHVPLMPAQPAPPKPQPTTRTPPQSQTPGALPAKREQPPSLTRNGPLSCGQRLRKSLSSMTRVVGGLVALRGAHPYIAALYWGHSFCAGSLIAPCWVLTAAHCLQDRPAPEDLTVVLGQERRNHSCEPCQTLAVRSYRLHEAFSPVSYQHDLALLRLQEDADGSCALLSPYVQPVCLPSGAARPSETTLCQVAGWGHQFEGAEEYASFLQEAQVPFLSLERCSAPDVHGSSILPGMLCAGFLEGGTDACQGDSGGPLVCEDQAAERRLTLQGIISWGSGCGDRNKPGVYTDVAYYLAWIREHTVS
[2]
  [3H]-thymidine incorporation in murine lung fibroblasts: peptide TCK from domain 2 (position 196-214) and random peptide had no effect on FXIIa induced proliferation
[3]
  [3H]-thymidine incorporation in murine lung fibroblasts: Peptide LRG20 (position 166-185) from uPAR's domain 2 blocked increase in DNA synthesis after FXIIa stimulation
Random peptide
  [3H]-thymidine incorporation in murine lung fibroblasts: peptide TCK from domain 2 (position 196-214) and random peptide had no effect on FXIIa induced proliferation
[1]
  [3H]-thymidine incorporation in murine lung fibroblasts: FXII-induced proliferation was blocked by FXIIa specific inhibitor, CTI
  p44/42 and Akt phosphorylation (Western blot) in murine lung fibroblasts: CTI attenuated p44/42 and Akt phosphorylation after 30 min of FXIIa exposure
